Laboratory results: patent publication US20230312744A1, “Modulatory Substance of Tumor Immune Microenvironment, and Preventive, Diagnostic and/or Therapeutic Utilization of the Same” (The University Of Tokyo, priority 2020, published 2023)

Assays:
Cxcl1 mRNA from PECs = experiment: PECs stimulated with supernatant of dead SL4 cells containing antibody, Cxcl1 mRNA by RT-qPCR; type: cell-based, mouse; conditions: PECs stimulated 2 hours with culture supernatant of SL4 cells containing 55F3, vs control IgG, FIG. 12(b)
Description: In FIG. 12(b), PECs (2×10^5 cells) were stimulated with a supernatant of dead SL4 cells comprising the 55F3 antibody or control IgG. After the stimulation for 2 hours, the expressed Cxcl1 mRNA was quantified by RT-qPCR. n=3, and Sup: culture supernatant. In FIG. 12(c), TCTP WT SL4 cells or TCTP KO SL4 cells ([…]) were subcutaneously transplanted into C57BL/6 mice. After the transplantation, DHA (50 mg/kg) or DMSO was intraperitoneally administered to the mice every day (n=6). In FIG. 12(d), (left view) the expression level of TCTP in the interstitial area of normal large intestinal tissues was compared with the expression level of TCTP in the interstitial area of colorectal cancer tissues. In FIG. 12(d), (right view) a normal colon crypt was compared with a neoplastic lesion. […] Spearman r: spearman correlation coefficients. *P<0.05, **P<0.01. Regarding FIG. 12(b), repeated measures one-way ANOVA with Dunnett's multiple comparisons test. Regarding FIG. 12(c), repeated measures one-way ANOVA with Tukey's multiple comparisons test. Regarding FIG. 12(d), unpaired two-sided Student's t-test. NS indicates “no significant difference.” The data are shown as a mean value ±[…] (s.e.m.).
RAW264.7 cells, the mouse melanoma cell line B16F10 cells, the mouse fibrosarcoma cell line Meth-A cells, and HEK293T cells were obtained from RIKEN BioResource Center (Japan). […]

mouse TCTP = biological target: T1, mouse TCTP (Mus musculus, UniProt P63028); experiment: Immunoblotting of whole cell lysate of TCTP WT / TCTP KO SL4 cells using the 55F3 monoclonal antibody; type: binding; conditions: lysate of TCTP WT vs TCTP KO SL4 cells, FIG. 12(a)
T1 construct: preparing the whole cell lysate of TCTP WT SL4 cells (WT) or TCTP KO SL4 cells (KO), followed by immunoblotting; endogenous in cells; host or cells: SL4 mouse colon carcinoma cells (TCTP WT; TCTP KO as negative control)
T1 sequence (P63028 1-172): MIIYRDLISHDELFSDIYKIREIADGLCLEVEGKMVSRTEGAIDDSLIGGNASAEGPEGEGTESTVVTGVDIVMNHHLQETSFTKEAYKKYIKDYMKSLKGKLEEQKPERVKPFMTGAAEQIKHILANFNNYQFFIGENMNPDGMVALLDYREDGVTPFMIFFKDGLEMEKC
Description: In FIG. 12(b), PECs (2×10^5 cells) were stimulated with a supernatant of dead SL4 cells comprising the 55F3 antibody or control IgG. After the stimulation for 2 hours, the expressed Cxcl1 mRNA was quantified by RT-qPCR. n=3, and Sup: culture supernatant. In FIG. 12(c), TCTP WT SL4 cells or TCTP KO SL4 cells ([…]) were subcutaneously transplanted into C57BL/6 mice. After the transplantation, DHA (50 mg/kg) or DMSO was intraperitoneally administered to the mice every day (n=6). In FIG. 12(d), (left view) the expression level of TCTP in the interstitial area of normal large intestinal tissues was compared with the expression level of TCTP in the interstitial area of colorectal cancer tissues. In FIG. 12(d), (right view) a normal colon crypt was compared with a neoplastic lesion. […] Spearman r: spearman correlation coefficients. *P<0.05, **P<0.01. Regarding FIG. 12(b), repeated measures one-way ANOVA with Dunnett's multiple comparisons test. Regarding FIG. 12(c), repeated measures one-way ANOVA with Tukey's multiple comparisons test. […]
Immunoblot analysis was performed according to the previous report (Inoue et al., Nature 434, 243-249, doi: 10.1038/nature03308 (2005)). β-Actin (cat# A5441) was purchased from Sigma-Aldrich. […] Immunoblotting signals were detected by FUSION Solo S (Vilber-Lourmat), and were then analyzed by FUSION Capt Advanced software (Vilber-Lourmat). […]

B1: 55F3: Mouse monoclonal antibody against human TCTP peptide SEQ ID NO: 25; CDRs SEQ ID NO: 1-6, VH SEQ ID NO: 19, VL SEQ ID NO: 22 (antibody, listed as Mus musculus)
VH: MRVLILLWLFTAFPGILSDVQLQESGPGLVKPSQSLSLTCTATGYSIASDYAWNWIRQFPGNKLEWMGYINYSGSTGYNPSLKSRISITRDTSKNQFFLQLNSVTTEDTATYYCARFEAGYWGQGTTLTVSSAKTTPPSVYPLAPGSAAQTNSMVTLGCLVKGYFPEPVT
VL: MDMRTPAQFLGILLLWFPGIKCDIKMTQSPSSMSASLGERVTITCKASQDINRYLSWFQQKPGKSPKTLIYRANRLVDGVPSRFSGSGSGQDYSLTISSLEYGDMGIYYCLQYNEFPLTFGAGTKLELKRADAAPTVSIFPPSSEQLTSGGASVVCFLN
Q: What does the source list for B1?
A: expression of Cxcl1 mRNA from PECs (Cxcl1 mRNA from PECs): suppressed; species crossing property to mouse TCTP (mouse TCTP): has species crossing property to mouse TCTP
